Reference: paper PMC7588230, “Structural basis of αE-catenin–F-actin catch bond behavior” (eLife, 2020)
Positions count from the first letter of the chain named. Names may count otherwise.

B1: αE-catenin ABD 699–868 (domain or fragment)
chain: DAEVSKWDDSGNDIIVLAKQMCMIMMEMTDFTRGKGPLKNTSDVISAAKKIAEAGSRMDKLGRTIADHCPDSACKQDLLAYLQRIALYCHQLNICSKVKAEVQNLGGELVVSGVDSAMSLIQAAKNLMNAVVQTVKASYVASTKYQKSQGMASLNLPAVSWKMKAPEKKP
B2: αE-catenin ABD 666–906 (full length) (domain or fragment)
chain: GQSARAIMAQLPQEQKAKIAEQVASFQEEKSKLDAEVSKWDDSGNDIIVLAKQMCMIMMEMTDFTRGKGPLKNTSDVISAAKKIAEAGSRMDKLGRTIADHCPDSACKQDLLAYLQRIALYCHQLNICSKVKAEVQNLGGELVVSGVDSAMSLIQAAKNLMNAVVQTVKASYVASTKYQKSQGMASLNLPAVSWKMKAPEKKPLVKREKQDETQTKIKRASQKKHVNPVQALSEFKAMDSI
B3: αE-catenin ABD 696–906 (domain or fragment)
chain: SKLDAEVSKWDDSGNDIIVLAKQMCMIMMEMTDFTRGKGPLKNTSDVISAAKKIAEAGSRMDKLGRTIADHCPDSACKQDLLAYLQRIALYCHQLNICSKVKAEVQNLGGELVVSGVDSAMSLIQAAKNLMNAVVQTVKASYVASTKYQKSQGMASLNLPAVSWKMKAPEKKPLVKREKQDETQTKIKRASQKKHVNPVQALSEFKAMDSI
B4: αE-catenin ABD 699–906 (domain or fragment)
chain: DAEVSKWDDSGNDIIVLAKQMCMIMMEMTDFTRGKGPLKNTSDVISAAKKIAEAGSRMDKLGRTIADHCPDSACKQDLLAYLQRIALYCHQLNICSKVKAEVQNLGGELVVSGVDSAMSLIQAAKNLMNAVVQTVKASYVASTKYQKSQGMASLNLPAVSWKMKAPEKKPLVKREKQDETQTKIKRASQKKHVNPVQALSEFKAMDSI
B5: αE-catenin ABD 671–872 (domain or fragment)
chain: AIMAQLPQEQKAKIAEQVASFQEEKSKLDAEVSKWDDSGNDIIVLAKQMCMIMMEMTDFTRGKGPLKNTSDVISAAKKIAEAGSRMDKLGRTIADHCPDSACKQDLLAYLQRIALYCHQLNICSKVKAEVQNLGGELVVSGVDSAMSLIQAAKNLMNAVVQTVKASYVASTKYQKSQGMASLNLPAVSWKMKAPEKKPLVKR
B6: αE-catenin ABD 671–906 (domain or fragment)
chain: AIMAQLPQEQKAKIAEQVASFQEEKSKLDAEVSKWDDSGNDIIVLAKQMCMIMMEMTDFTRGKGPLKNTSDVISAAKKIAEAGSRMDKLGRTIADHCPDSACKQDLLAYLQRIALYCHQLNICSKVKAEVQNLGGELVVSGVDSAMSLIQAAKNLMNAVVQTVKASYVASTKYQKSQGMASLNLPAVSWKMKAPEKKPLVKREKQDETQTKIKRASQKKHVNPVQALSEFKAMDSI
B7: αE-catenin ABD 671–906 W859A (domain or fragment)
chain: B6 chain with W189A
B8: αE-catenin ABD 692–906 (domain or fragment)
chain: QEEKSKLDAEVSKWDDSGNDIIVLAKQMCMIMMEMTDFTRGKGPLKNTSDVISAAKKIAEAGSRMDKLGRTIADHCPDSACKQDLLAYLQRIALYCHQLNICSKVKAEVQNLGGELVVSGVDSAMSLIQAAKNLMNAVVQTVKASYVASTKYQKSQGMASLNLPAVSWKMKAPEKKPLVKREKQDETQTKIKRASQKKHVNPVQALSEFKAMDSI

Target: F-actin (rabbit skeletal muscle actin, ADP-actin filaments) (rabbit, UniProt P68135 1-377)
Test: co-sedimentation; dilution series of ABD mixed with an equal volume of 4 μM F-actin, 30 min at room temperature, 20 mM HEPES pH 8.0, 150 mM NaCl, 1 mM DTT; pelleted at 140,717 x g for 20 min at 4°C; Coomassie bands quantified; fit with a Hill coefficient (W859A: one site-specific binding)
Details: both partners purified

Binder	Kd
B1	2800 nM
B2	8500 nM
B3	400 nM
B4	500 nM
B5	5000 nM
B6	2000 nM
B7	> 35000 nM
B8	700 nM
